Experimental data as given in patent US7387779B2, “Anti-angiogenic proteins and fragments and methods of use thereof” (Beth Israel Deaconess Medical Center, priority 1998, dated 2008).

B1: Canstatin: NC1 domain of the α2 chain of Type IV collagen (SEQ ID NO:6) (protein, listed as Homo sapiens)
chain: VSIGYLLVKHSQTDQEPMCPVGMNKLWSGYSLLYFEGQEKAHNQDLGLAGSCLARFSTMPFLYCNPGDVCYYASRNDKSYWLSTTAPLPMMPVAEDEIKPYISRCSVCEAPAIAIAVHSQDVSIPHCPAGWRSLWIGYSFLMHTAAGDEGGGQSLVSPGSCLEDFRATPFIECNGGRGTCHYYANKYSFWLTTIPEQSFQGSPSADTLKAGLIRTHISRCQVCMKNL
B2: endostatin: tumor associated angiogenesis inhibitor used as comparator (protein, UniProt P39060 1572-1754, looked up)
Endostatin: HSHRDFQPVLHLVALNSPLSGGMRGIRGADFQCFQQARAVGLAGTFRAFLSSRLQDLYSIVRRADRAAVPIVNLKDELLFPSWEALFSGSEGPLKPGARIFSFDGKDVLRHPTWPQKSVWHGSDPNGRRLTESYCETWRTEAPSATGQASSLLGGRLLGQSAASCHHAYIVLCIENSFMTASK
modifications: Endostatin
B3: Tumstatin: NC1 domain of the α3 chain of type IV collagen, residues 1-244 (SEQ ID NO:10) (protein, listed as Homo sapiens)
chain: GLKGKRGDSGSPATWTTRGFVFTRHSQTTAIPSCPEGTVPLYSGFSFLFVQGNQRAHGQDLGTLGSCLQRFTTMPFLFCNVNDVCNFASRNDYSYWLSTPALMPMNMAPITGRALEPYISRCTVCEGPAIAIAVHSQTTDIPPCPHGWISLWKGFSFIMFTSAGSEGTGQALASPGSCLEEFRASPFLECHGRGTCNYYSNSYSFWLASLNPERMFRKPIPSTVKAGELEKIISRCQVCMKKRH

Experiments:
[1] = tested on: 786-O (renal carcinoma) cells; assay: Proliferation of control cells, 3H-thymidine incorporation; format: cell-based, human; details: non-endothelial control; Canstatin up to 40 mg/ml, Tumstatin up to 20 mg/ml
Procedure: (§1) C-PAE cells were grown to confluence in DMEM with 10% fetal calf serum (FCS) and kept contact inhibited for 48 hours. Control cells were 786-O (renal carcinoma) cells, PC-3 cells, HPEC cells, and A-498 (renal carcinoma) cells. Cells were harvested with trypsinization (Life Technologies/Gibco BRL, Gaithersburg, Md., USA) at 37° C. for five minutes. […] The cells were incubated for 24 hours at 37° C. with 5% CO2 and 95% humidity. Medium was removed and replaced with DMEM containing 0.5% FCS and 3 ng/ml bFGF (R&D Systems, Minneapolis, Minn., USA). Unstimulated controls received no bFGF. […] All wells received 1 μCurie of ^3H-thymidine at the time of treatment. After 24 hours, medium was removed and the wells were washed with PBS. Cells were extracted with 1N NaOH and added to a scintillation vial containing 4 ml of ScintiVerse II (Fisher Scientific, Pittsburgh, Pa., USA) solution. Thymidine incorporation was measured using a scintillation counter. The results are shown in FIGS. 3A and 3B, which are a pair of graphs showing incorporation of ^3H-thymidine into C-PAE cells treated with varying amounts of Arresten (FIG. 3A) or endostatin (FIG. 3B). Arresten appeared to inhibit thymidine incorporation in C-PAE as well as did endostatin. Behavior of control cells treated with Arresten and endostatin is also shown in FIG. 4A, 4B, 4C, and 4D, with Arresten having little effect on 786-O cells (FIG. 4A), PC-3 cells (FIG. 4B), or HPEC cells (FIG. 4C). Endostatin had little effect on A-498 cells (FIG. 4D). All groups in FIGS. 3 and 4 represent triplicate samples. […] (C-PAE) cells were grown to confluence in DMEM with 10% fetal calf serum (FCS) and kept contact inhibited for 48 hours. Cells were harvested by trypsinization (Life Technologies/Gibco BRL, Gaithersberg, Md., USA) at 37° C. for 5 minutes. […] The cells were incubated for 24 hours at 37° C. C. with 5% CO2 and 95% humidity. Medium was removed, and replaced with DMEM containing 0.5% FCS (unstimulated) or 10% FCS (stimulated and treated cells). 786-O, PC-3 and HEK 293 cells served as controls and were also grown to confluency, trypsinized and plated in the same manner. Cells were treated with concentrations of Canstatin or endostatin ranging from 0.025 to 40 mg/ml in triplicate. In thymidine incorporation experiments, all wells received […] of ^3H-thymidine at the time of treatment. After 24 hours, medium was removed and the wells were washed 3 times with PBS. Radioactivity was extracted with 1N NaOH and added to a scintillation vial containing 4 ml of ScintiVerse II (Fisher Scientific, Pittsburgh, Pa., USA) solution. Thymidine incorporation was measured using a scintillation counter. […]

[2] = tested on: PC-3 cells; assay: as above; format: cell-based, human; details: non-endothelial control; Canstatin up to 40 mg/ml, Tumstatin up to 20 mg/ml
Procedure: as §1

[3] = tested on: MLEC β3−/−; assay: Protein synthesis and cap-dependent translation in β3-integrin deficient endothelial cells; format: cell-based, mouse; details: 4.5 μM; rapamycin 100 ng/ml
Excerpt: Therefore, to evaluate the effect of tumstatin peptides on cap-dependent and independent translation, endothelial cells were isolated from lungs of 12-week-old mice that were deficient in the expression of αvβ3 integrin (i.e., 3 integrin-deficient mice), and also their wild-type counterparts (Hodivala-Dilke, K. M. et al., 1999, J. Clin. Invest. 103:229-38). Briefly, ICAM-2 expressing MLEC were enriched using rat anti-mouse ICAM-2 (# 01800D, PharMingen, San Diego, Calif., USA) conjugated to magnetic beads (Dynabeads M-450, Dynal, Oslo, Norway). MLEC were maintained in 40% Ham's F-12,40% DME-Low Glucose, 20% FBS supplemented with heparin, endothelial mitogen (Biomedical Technologies, Inc., Cambridge, Mass., USA), glutamine and penicillin/streptomycin. Wild-type and β3-integrin-deficient mouse embryonic fibroblasts were prepared (Hodivala-Dilke, K. M. et al., 1999, J. Clin. Invest. 103:229-38). MEFs were maintained in DMEM containing 10% FBS. MLEC were characterized for homogeneity by morphological observations and by immunofluorescence staining for endothelial-specific markers. Cells between passage 3 and 6 were used for the experiments.

Row | Molecule | effect on proliferation [1] | effect on proliferation [2] | cap-dependent protein synthesis in αvβ3 integrin deficient (β3−/−) endothelial cells [3]
1 | B1 | No significant effect | No significant effect | 
2 | B2 |  |  | did not exhibit this property
3 | B3 | no significant anti-proliferative effect | no significant anti-proliferative effect | did not have any effect
